# Measurements as given in patent US12371675B2, “Process and microorganism for synthesis of adipic acid from carboxylic acids” (THE GOVERNING COUNCIL OF THE UNIVERSITY OF TORONTO, priority 2015, dated 2025).
# B1: PSPH1060: OYE protein from Pseudomonas syringae pv. phaseolicola 1448A (protein)
# chain: MSVEALFTPFRLGSLELSSRVVMAPMTRSFSPGHVPNSKVIEYYRRRAAAGVGLIVTEGTTVNHKASNGYPNVPQFFGDAPLAGWRKVVEAVHAEGGKIVPQLWHVGAVRRPGTEPDGSVPAYGPMEKVKDGQVLVHGMSKQDIDDVVAAFAQAAVDAKAIGMDGVEIHGAHGYLIDQFFWEGSNQRSDEYGGSLAKRSRFAIELIKAVRVAVGADYPIIFRFSQWKQQDYTARLVQTPEALGEFLQPLADAGVDIFHCSTRRFWEPEFEGSDLNLAGWTRKLTGKPTITVGSVGLDGEFLQFMVNTDKVAQPASLENLLKRLGNDEFDLVAVGRALLVDPDWALKVREGREQDILPFSREALTTLV
# B2: RHA03305: OYE protein from Rhodococcus sp. RHA1 (protein)
# chain: MQHTSTTASTLFSPLKLGSTELANRVALAPMTRVSGDEDGSANESIASYYEVFAKGGFGLLITEGIYPDTKYSQGYLNQPGLATAQHADSWKPVVERVHTAGARIFAQLMHAGAQSQGNRYVTETIAPSTTPPLGEQLGFYGGTGPYATPRALSLRDIDDVCAGFAQAAQHAVAAGFDGVEIHGANGYLLDQFLTDYMNQRDDEYGGSLANRLKIYREVIAAVRQVVGSKVTVGVRISQSKVSDYNHRWAGGESDAAEIFQGLAETGVDYIHTTEFDATAPAFADSGTTLAAFATKYSGLPVIANGQLGDPAAADALIENGSAQVISLGKPALANRDWPQRALDAKPIQSDVDPSVFSPMATVKSWELSA
# B3: CV3501: OYE protein from Chromobacterium violaceum ATCC 12472 (protein)
# chain: MNADKLLTPLTMGAVALSNRVVMAPLTRLRNIEPGDVPGPLAKEYYRQRASAGLIVAEGTHISPTAKGYAGAPGIYSEEQVRAWSEVTGAVHQDGGKIALQLWHTGRISHRSLQPNGDAPVGPSAIQADSRTNIRAADGSLVREQCDTPRALEIEEIEDIIEDYRRAADNARRAGFDMVEIHGAHGYLIDQFLSPAANVRTDQYGGSVENRARFLLEVVDAVVAEWDADHVGIRISPLGIFNGVSNTDQLDMALYLAEQLAKRKLAFLHISEPDWAGGPTLDDGFRAELRQRYPGVIIGAGGYSAEKAETLLKKGFIDAAAFGRSYIANPDLVERLKQNAPLNPPKPDTFYGGGAEGYTDYPTL
# B4: SAV1511: OYE protein from Streptomyces avermitilis MA-4680 (protein)
# chain: MSALFEPYSLRDLTIPNRVWMAPMCQYSAAPQGPAAGAPHDWHFAHYAARATGGTGLIVVEATAVSPEGRISPYDLGIWNDTQVEAFRRITRFLAAQGTVPAIQLAHGGRKASTDRPWKGGAPLAADEHGWQPLGPSPVAFDERHPVPTELSVAEIRQIVGQFADAARRALAAGFEIAEIHGAHGYLINEFLSPHSNRRTDEYGGSYENRVRFALEVVDAVREVWPAGKPLFFRVSATDWLDEGGWTADDTVRFAAELQAHGVDLLDVSTGGNASGVRIPTGPGYQVPFAARVKAGTSLPVAAVGLITDAEQAEKILANGEADAILLGRELLRNPSFARLAARELGGDVHVPAQYHRSV
# B5: PSPH1370: OYE protein from Pseudomonas syringae pv. phaseolicola 1448A (protein)
# chain: MSLLLEPYTLRQLTLRNRIAVSPMCQYSSVDGLANDWHLVHLGSRAVGGAGLVITEAMAVTPDGRITPEDLGLWNDEQIEPLQRITRFINAQGAVAGIQLAHAGRKASTWRPWLGKHGSISLNEGGWTPVGPSAIAFDPQHTAPVQLSETQIQELIKAFVDSARRALTAGFKVVEIHAAHGYLLHQFLSPLSNQRTDQYGGSFENRIRLTLQVTEAVRAVWPEELPLFVRVSATDWVEDGWNADETVELARRLKALGTDLIDVSSGGTSANAEIPVGPGYQTRFAERVRKESEIATGTVGMITDPAQAEHILRTGQADIILLARELLRDPYWPLRADEDLGGRLATWPAQYQRATHRDQPIHESDLRD
# B6: XCC0307: OYE protein from Xanthomonas campestris pv. campestris str. ATCC 33913 (protein)
# chain: MSQLFTPINFGPLALANRIVIAPMCQYSAQDGRATDWHRIHLGTLSQSGAALLILEAAAVQPQGRISYADLGLYDDATEQALGEVLASVRRWSPMPIGIQLAHAGRKASTDLPWKGGEAIAPDHANGWQTVSASALPFRDGQPLPQALDAAGIDAVVEAFVTAAKRAERLELQLIELHAAHGYLMHQFLSPLSNQRSDAYGGSLDNRMRLTLRIFDAVRAAVSDQMAIGVRISATDWVDGGWDLPQSIALSKALDARGAHYIHVSSGGLDPRQQIPVQASYQIPFAEAIRAQVDTPVIGVGLITEPQQAEAILRDGQADAIALARGILYDPRWPWHAAAALGASVTPAPQYQRCEPREARGVFAS
# B7: PSPH4058: OYE protein from Pseudomonas syringae phaseolicola 1448A (protein)
# chain: MTTIFDPITIGDLQLPNRIIMAPLTRCRADEGRVPNALMSEYYVQRASAGLILTEATSVTPMGVGYPDTPGIWSNDQVRGWSNITKAVHTAGGRIVLQLWHVGRISHPAYLNGETPVAPSAIAAEGHVSLMRPITPLPTPRALELAEIGDIVEAYRVGAENAKAAGFDGVEVHGANGYLLEQFLLTGSNQRTDEYGGSVENRARLLLEVTDAVIEVWGAGRVGVHLSPRFDMHDMSDANRTETFSYVAKELGKRGIAFICARERDAEDSLGPQLKKDFGGVYIANEKFTKDTANTWLAEGKADAIAFGVPYIANPDLPERLASDAPLNEAHPETFYGKGPVGYIDYPRL
# B8: PS4251: OYE protein from Pseudomonas syringae pv. tomato str. DC3000 (protein)
# chain: MTTIFDPITLGDLQLPNRIILAPLTRCRADEGRVPNALMSEYYVQRASAGLILTEATSVTPMGVGYPDTPGIWSNDQVRGWSNITQAVHNAGGRIVLQLWHVGRISHPSYLNGETPVAPSAIAAQGHVSLMRPITPLPTPRALELAEIGDIVEAYRVGAENAKAAGFDGVEVHGANGYLLEQFLLTGSNQRTDQYGGSLENRARLLLEVTDAVIDVWGAGRVGVHLSPRFDMHNMSDENRAETFSYVAKELGKRGIAFICARERDAEDSLGPQLKKDFGGVYIANEKFTKDSANAWLAEGKADAFAFGVPYIANPDLPERLASDAPLNEAHPETFYGKGPVGYIDYPRL
# B9: BH1481: OYE protein from Bacillus halodurans C-125 (protein)
# chain: MEHKLFSSYVVKGVTLKNRIVMSPMCMYSSDQKDGKIRPFHISHYESRAAGQVGLIIVEATAVTPQGRISPYDLGIWSDDHISGLTETVERIHAHGAKAAIQLAHAGRKAELDGPIIAPSAISYDKMKTPDAMTEEQISETIEAFKLGALRAKKAGFDIIEIHGAHGYLINEFLSPLTNKRTDAYGGSLENRYRLLREIISEIQTVWDGPLFVRISAAEYAEGGNELSDFITLAKWMKKQGIDLIDCSSGAVVPAPIPVYPGYQVPLAEAIRHEANIATGAVGLITSGIQAEEILQNERADLIFVARELLRNPYWPREAALELGTTISGPSQYDRAWL
# B10: PA1146: aldehyde reductase (AR) from Pseudomonas aeruginosa (protein)
# chain: MSDLHYWNYPTDILCGVGALEQLPRRCALAGARRPLLVTDPGMRALEPLRLVRECLERAGIDHDLFHELSSNPSLAEVQGGARRFEAGGHDALIALGGGSALDAAKGIALLSRDPHGLERFEWTQTLRSYPTLADYPPLGLPPLLALPTTAGTGSELGREAVLTDTQLGIKRVVGHRELLAACVFLDPRLTRGLPPALSAATGMDALTHHLEALFSPLYHPMSAGIALEGVRLVRQHLENAVRDGNDLAAREGMLVASASAAVAFQKGLGGVHALAHPLGARHHLHHGLLNAVLLPYVLLANRPAIEADAARLARYLELDEASFDGLLAWILELRARIGIPANLAALGLDGEDAQWVGEQALADLSSSATNALPLDARDYARIYRQAVAGTLA
# B11: BH2491: aldehyde reductase (AR) from Bacillus halodurans (protein)
# chain: MLQGKTAIVTGASRGIGRATAMELARHGANVVVNYAGNKEKAEKVVAEIKELGVEAIAIQADVADSESVQAMVKETIDTFGAVDILVNNAGITRDNLFMRMKEEDWDAVIDTNLKGVFHCSKAVTRPMMKQRFGRIINVSSVVGAIGNAGQANYVAAKAGVIGLTKTLARELANRNITVNAVAPGFIETDMTGELPEDVKAQMLGQIPLARLGQPEEVAKAVRFLASDDASYLTGQTIHVNGGMVM
# B12: CV_2177: aldehyde reductase (AR) from Chromobacterium violaceum (protein)
# chain: MRRLEGKQALITGGTSGIGLETAKQFLAEGAKVAITGRSEAGLAQANEVLGGRALLLKSDAGSLDDQRALPAQLRSHGWSRLDAAYLNAGDVTHLPLADWSEADFDRVMAVNLKGPFFLLQALSPLLANPSSVILCGSVGARIGVPSSSAYAASKAGLLSLARTLSAEWLDRGIRVNGLSPGPTHTPAFGKLGMPEDELPALRDRIRKLVPLGRLGRPEELAKAAVFLASDESSYMLGSELLVDGGVGNV
# Experiment: OYE hydrogenation activity screen, NADPH oxidation at 340 nm
# Assay type: biochemical
# Details: 1 mM substrate, 0.25 mM NADPH, 2.5 μg protein; cut-off 0.05 U/mg protein; ND = not detected
# Description: 25 putative OYE genes (Table 1) were cloned based on the Pfam domain of the FMN oxidoreductase family PF00724. Purified OYEs were screened for hydrogenation activity against acrolein, 2-cyclohexn-1-one, cis,cis-muconic acid, trans,trans-muconic acid, and 2-hexendioic acid. Substrate specificity was measured spectrophotometrically in 96-well plates by following incubation for 20 min at room temperature in the anaerobic chamber. Buffers and reagents were also degassed and sparged with Ar. Reaction mixtures contained potassium phosphate (50 mM and pH 7.0), NaCl (10 mM), NADPH (0.25 mM), various substrates (1 mM) and protein (2.5 μg) in a final volume of 200 μL. Enzyme reactions were monitored by following the decrease in absorbance at 340 nm (ε340 nm=6,200/M·cm) as a measure of the conversion of the cofactor NADPH to NADP+.
Molecule,Activity [U/mg protein] 2-cyclohexen-1-one [U/mg protein],Activity [U/mg protein] acrolein [U/mg protein]
B1,0.14,–
B2,–,0.08
B3,0.07,–
B4,0.23,0.05
B5,0.18,–
B6,0.15,–
B7,0.22,–
B8,0.09,–
B9,0.13,–

# Experiment: AR reductase activity, NAD(P)H oxidation at 340 nm
# Assay type: biochemical
# Details: 10 mM, 1.8% DMSO; ND = no activity was detected
# Description: Enzyme activity of purified ARs was measured spectrophotometrically in 96-well plates Reaction mixtures contained 100 mM HEPES buffer (pH 7.5), 0.4 mM NADH/NADPH, 10 mM adipaldehyde or butylaldehyde, and proteins (10 μg for adipaldehyde screen, 2 μg for butyraldehyde screen) in a final volume of 200 μL Reaction mixture for adipaldehyde screening contained 1.8% DMSO. Enzyme reactions were monitored by following the decrease in absorbance at 340 nm (ε340 nm=6,220/M·cm) due to oxidation of NAD(P)H to NAD(P)+.
row,Molecule,Activity [U/mg protein] Adipaldehyde [U/mg protein]
1,B10,0.696 ± 0.032

# Same assay, conditions: 10 mM; ND = no activity was detected
row,Molecule,Activity [U/mg protein] Butyraldehyde [U/mg protein]
1,B11,0.108 ± 0.026
2,B12,0.151 ± 0.054
3,B10,1.68 ± 0.144
